# Biological target: LecB-biotin (Pseudomonas aeruginosa lectin LecB, biotinylated) (Pseudomonas aeruginosa) (UniProt Q9HYN5)
# Assay: pull-down
substance,measurement,value
"β1-integrin (glycosylated, endogenous in MDCK cells) (receptor)",percent of total β1-integrin extracted by LecB-biotin,75%
